Measured values reported in PMC9484220.

Legend:
[1] = target: AQP2 protein (eukaryotic expression, purified; Flag-Mcherry tag excised) (UniProt P41181); test: SPR; BIAcore T200; AQP2 immobilised on CM5 chip by amine coupling (10 mM NaAc, pH 4.0); MIAC peptide injected; HBS-EP buffer; equilibrium Req values of 5 concentrations fitted to 1:1 binding
[2] = target: chemosynthetic peptide MIAC labeled by CY5; test: MST; CY5-labeled MIAC with AQP2 protein, incubated 5 min at room temperature, premium-coated capillaries, Monolith NT.115

| Kd [1] | Kd [2] | Molecule |
| --- | --- | --- |
| 5.13 µM | – | chemically synthesized MIAC polypeptide |
| – | 6.92 µM | AQP2 protein (eukaryotic expression, purified; Flag-Mcherry tag excised) (natural protein) MWELRSIAFSRAVFAEFLATLLFVFFGLGSALNWPQALPSVLQIAMAFGLGIGTLVQALGHISGAHINPAVTVACLVGCHVSVLRAAFYVAAQLLGAVAGAALLHEITPADIRGDLAVNALSNSTTAGQAVTVELFLTLQLVLCIFASTDERRGENPGTPALSIGFSVALGHLLGIHYTGCSMNPARSLAPAVVTGKFDDHWVFWIGPLVGAILGSLLYNYVLFPPAKSLSERLAVLKGLEPDTDWEEREVRRRQSVELHSPQSLPRGTKA |
